# According to US20230301998A1 (SANFORD BURNHAM PREBYS MEDICAL DISCOVERY INSTITUTE, published 2023):
# T1: Flag-tagged SHARPIN (human, UniProt Q9H0F6 1-387)
# T1 construct: also called Flag-SHARPIN; not shown: FLAG tag
# T1 sequence (looked up): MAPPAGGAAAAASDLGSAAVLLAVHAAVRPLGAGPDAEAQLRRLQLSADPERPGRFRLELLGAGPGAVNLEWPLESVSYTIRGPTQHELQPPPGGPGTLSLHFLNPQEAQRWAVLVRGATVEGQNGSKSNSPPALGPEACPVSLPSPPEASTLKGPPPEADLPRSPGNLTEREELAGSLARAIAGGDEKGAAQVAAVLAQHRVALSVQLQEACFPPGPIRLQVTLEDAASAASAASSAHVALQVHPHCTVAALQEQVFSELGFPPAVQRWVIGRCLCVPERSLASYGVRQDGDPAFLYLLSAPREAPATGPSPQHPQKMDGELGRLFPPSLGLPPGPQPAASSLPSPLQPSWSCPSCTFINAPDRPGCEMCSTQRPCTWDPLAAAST
# T2: Interferon-activable protein 204 (Mus musculus) (IFI204) (Mus musculus, UniProt P0DOV2 1-619)
# T2 construct: also called IF204
# T2 sequence: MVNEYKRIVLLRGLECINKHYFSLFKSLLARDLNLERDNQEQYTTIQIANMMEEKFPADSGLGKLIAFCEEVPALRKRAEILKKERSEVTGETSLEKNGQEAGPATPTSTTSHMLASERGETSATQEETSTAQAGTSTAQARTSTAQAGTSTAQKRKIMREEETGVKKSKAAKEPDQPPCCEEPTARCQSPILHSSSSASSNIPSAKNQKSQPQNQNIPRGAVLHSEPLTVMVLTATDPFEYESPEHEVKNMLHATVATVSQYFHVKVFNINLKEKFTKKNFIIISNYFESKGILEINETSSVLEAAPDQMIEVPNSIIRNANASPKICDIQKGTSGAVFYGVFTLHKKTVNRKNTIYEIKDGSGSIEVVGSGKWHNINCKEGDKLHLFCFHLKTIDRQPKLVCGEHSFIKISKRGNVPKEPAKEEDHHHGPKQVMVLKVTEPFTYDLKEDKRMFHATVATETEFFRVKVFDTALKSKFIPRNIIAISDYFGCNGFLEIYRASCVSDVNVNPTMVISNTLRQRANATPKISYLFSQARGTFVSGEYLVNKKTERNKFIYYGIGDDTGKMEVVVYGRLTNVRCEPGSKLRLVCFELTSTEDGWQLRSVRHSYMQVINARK
# T3: Gamma-interferon-inducible protein 16 (IFI16) (human, UniProt Q16666 1-785)
# T3 construct: Endogenous protein in WM115 / A375
# T3 sequence: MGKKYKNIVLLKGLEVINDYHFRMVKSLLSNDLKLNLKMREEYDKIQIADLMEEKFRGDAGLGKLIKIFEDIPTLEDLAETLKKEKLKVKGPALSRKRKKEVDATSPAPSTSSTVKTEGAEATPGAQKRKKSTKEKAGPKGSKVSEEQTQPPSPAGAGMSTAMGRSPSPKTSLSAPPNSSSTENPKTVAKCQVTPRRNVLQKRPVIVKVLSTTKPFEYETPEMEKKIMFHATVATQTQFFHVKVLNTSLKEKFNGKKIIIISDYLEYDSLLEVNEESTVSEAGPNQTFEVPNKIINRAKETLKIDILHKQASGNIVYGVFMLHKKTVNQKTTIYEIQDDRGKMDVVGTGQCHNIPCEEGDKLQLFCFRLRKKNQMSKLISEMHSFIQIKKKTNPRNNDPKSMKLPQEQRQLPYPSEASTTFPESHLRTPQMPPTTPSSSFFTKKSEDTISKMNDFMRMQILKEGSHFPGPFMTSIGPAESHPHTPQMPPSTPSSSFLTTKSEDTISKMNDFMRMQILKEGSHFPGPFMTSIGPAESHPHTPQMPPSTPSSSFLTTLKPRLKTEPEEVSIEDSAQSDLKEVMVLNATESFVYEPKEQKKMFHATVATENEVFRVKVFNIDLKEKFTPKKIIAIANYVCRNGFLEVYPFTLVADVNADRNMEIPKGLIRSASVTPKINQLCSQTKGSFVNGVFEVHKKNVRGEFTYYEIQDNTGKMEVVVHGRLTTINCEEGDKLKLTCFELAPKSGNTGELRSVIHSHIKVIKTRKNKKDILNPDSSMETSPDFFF
# Legend:
# Flag-tagged SHARPIN = biological target: T1, Flag-tagged SHARPIN; test: Flag IP of Flag-SHARPIN from WM115 lysate, on-bead tryptic digestion, LC/MS-MS
# Experimental: To identify SHARPIN-interacting proteins, WM115 cells were transfected with Flag-tagged SHARPIN or control empty plasmid. Cell lysates were prepared using 1% Triton X-100 buffer [50 mM Tris-HCl, pH7.4, 1% (v/v) Triton X-100, 150 mM NaCl, 1 mM EDTA, and protease and phosphatase inhibitor cocktails (Thermo Fisher Scientific)]. Lysates were pre-cleared with protein A/G beads (Santa Cruz Biotechnology) for 1 h at 4° C. followed by immunoprecipitation using FLAG-M2-agarose beads (Sigma-Aldrich) overnight at 4° C. Beads were then washed with lysis buffer and TBS containing lx protease inhibitor cocktail before being subjected to on-bead tryptic digestion followed by mass spectrometry. In Vitro Methylation Assay.
# [1] = biological target: T2, Interferon-activable protein 204 (Mus …); test: co-immunoprecipitation and immunoblot, B16 cell lysates (FIG. 8D)
# Experimental: FIG. 8D depicts B16 cells were treated with vehicle (DMSO) or PRMT5 inhibitor (PRMT5i; EPZ015666, 10 μM) for 48. IP followed by IB of B16 cells lysates (1.5 mg) was performed with the indicated antibodies. SYM10 indicates anti-symmetric dimethyl arginine antibody (Millipore). FIGS. 8E and 8F depict A375 (FIG. 8E) or B16 (FIG. 8F) cells treated with vehicle or a PRMT5 inhibitor (EPZ015666) as above before lysates [A375 (1.0 mg), B16 (2.5 mg)] were prepared and subjected to IP followed by immunoblotting with indicated antibodies. FIG. 8G depicts B16 cells stably expressing indicated constructs were treated 24 h with DMSO or PRMT5i before lysates were IP'ed with V5 antibody and immunoblotted with indicated antibodies.
# Immunoblotting was performed using standard protocols. Melanoma cells were lysed by incubation in RIPA buffer [50 mM Tris-HC1, pH7.4, 1% (v/v) NP40, 0.1% (w/v) sodium deoxycholate, 0.1% (w/v) sodium dodecyl sulfate, 150 mM NaCl, 1mM EDTA, and protease and phosphatase inhibitor cocktails (Thermo Fisher Scientific)] and freeze-thawed 3 times. For immunoprecipitation HEK293T cells were lysed in 1% Triton X-100 buffer [50 mM Tris-HC1, pH7.4, 1% (v/v) Triton X-100, 150 mM NaCl, 1 mM EDTA, and protease and phosphatase inhibitor cocktails (Thermo Fisher Scientific)] and freeze-thawed 3 times. […]
# [2] = biological target: T3, Gamma-interferon-inducible protein 16 …; test: co-immunoprecipitation and immunoblot, human melanoma cell lysates (FIGS. 8C, 10C)
binding result (Flag-tagged SHARPIN),Binder,further results
binds,"MYL12A (other, human, UniProt P19105 1-171, looked up, endogenous protein co-purified from WM115 lysate) MSSKRTKTKTKKRPQRATSNVFAMFDQSQIQEFKEAFNMIDQNRDGFIDKEDLHDMLASLGKNPTDEYLDAMMNEAPGPINFTMFLTMFGEKLNGTDPEDVIRNAFACFDEEATGTIQEDYLRELLTTMGDRFTDEEVDELYREAPIDKKGNFNYIEFTRILKHGAKDKDD",–
binds,"GSTP1 (other, human, UniProt P09211 2-210, looked up, endogenous protein co-purified from WM115 lysate) PPYTVVYFPVRGRCAALRMLLADQGQSWKEEVVTVETWQEGSLKASCLYGQLPKFQDGDLTLYQSNTILRHLGRTLGLYGKDQQEAALVDMVNDGVEDLRCKYISLIYTNYEAGKDDYVKALPGQLKPFETLLSQNQGGKTFIVGDQISFADYNLLDLLLIHEVLAPGCLDAFPLLSAYVGRLSARPKLKAFLASPEYVNLPINGNGKQ",–
–,"SHARPIN (endogenous, murine B16 melanoma cells) (other, mouse, UniProt Q91WA6 1-380, looked up) MSPPAGGAAVAADPASPVVLLAVHAAVRPLGAGQDAEAQPRKLQLIADPERPGRFRLGLLGTEPGAVSLEWPLEAICYTVRGPNQHELQPPPGGPGTFSVHFLDPEEAQQWAALVRDATAEGQNGSGSPAPAPAPAMCPISPPCSSMAQIPKATQPEVDLPQSSGNFKKEELATRLSQAIAGGDEKAAAQVAAVLAQHHVALNVQLMEAWFPPGPIRLQVTVEDATSVLSSSSSAHVSLKIHPHCSIAALQDQVFSEFGFPPAVQRWVIGRCLCMPERSLASYGVSQDGDPAFLYLLSAPREVSGQSLQNSKMDRKLGLFPQSLGLPHDLQPSSSSLPSPSQPGWSCPSCTFINASNRPGCEMCSTQRPCAWDPLAAAST",binding result [1]: binds
–,"SHARPIN (endogenous, human melanoma cells WM115 / A375) (other, UniProt Q9H0F6 1-387, looked up) MAPPAGGAAAAASDLGSAAVLLAVHAAVRPLGAGPDAEAQLRRLQLSADPERPGRFRLELLGAGPGAVNLEWPLESVSYTIRGPTQHELQPPPGGPGTLSLHFLNPQEAQRWAVLVRGATVEGQNGSKSNSPPALGPEACPVSLPSPPEASTLKGPPPEADLPRSPGNLTEREELAGSLARAIAGGDEKGAAQVAAVLAQHRVALSVQLQEACFPPGPIRLQVTLEDAASAASAASSAHVALQVHPHCTVAALQEQVFSELGFPPAVQRWVIGRCLCVPERSLASYGVRQDGDPAFLYLLSAPREAPATGPSPQHPQKMDGELGRLFPPSLGLPPGPQPAASSLPSPLQPSWSCPSCTFINAPDRPGCEMCSTQRPCTWDPLAAAST",binding result [2]: binds
binds,"MYL128 (other, human, UniProt O14950 1-172, looked up, endogenous protein co-purified from WM115 lysate; also called MYL12B) MSSKKAKTKTTKKRPQRATSNVFAMFDQSQIQEFKEAFNMIDQNRDGFIDKEDLHDMLASLGKNPTDAYLDAMMNEAPGPINFTMFLTMFGEKLNGTDPEDVIRNAFACFDEEATGTIQEDYLRELLTTMGDRFTDEEVDELYREAPIDKKGNFNYIEFTRILKHGAKDKDD",–
binds,"SLC25A4 (other, human, UniProt P12235 2-298, looked up, endogenous protein co-purified from WM115 lysate) GDHAWSFLKDFLAGGVAAAVSKTAVAPIERVKLLLQVQHASKQISAEKQYKGIIDCVVRIPKEQGFLSFWRGNLANVIRYFPTQALNFAFKDKYKQLFLGGVDRHKQFWRYFAGNLASGGAAGATSLCFVYPLDFARTRLAADVGKGAAQREFHGLGDCIIKIFKSDGLRGLYQGFNVSVQGIIIYRAAYFGVYDTAKGMLPDPKNVHIFVSWMIAQSVTAVAGLVSYPFDTVRRRMMMQSGRKGADIMYTGTVDCWRKIAKDEGAKAFFKGAWSNVLRGMGGAFVLVLYDEIKKYV",–
